Source: the DeepSol protein solubility set

Assay: soluble on expression in E. coli; label from the status in PepcDB or PDB records

Sequence | soluble on expression in E. coli
MHAGEAVQQLKKAFETVASFDFRDALSKASTPVTVVATNGPFGLAGLTCSAVCSVCDRPPTVLLCINRKSYAAGIIKSNGVLSVNWLAAGQAVISQTFAGVGSVPMEERFADKGWQTIATGAPYRMDAAVSFDCTIANIVDVGSHSVIFAEVVARNHAEECTPLIYHRRQYATTRSLAEHHHHHH | soluble
SLDPLFTTQILKYKGDESFTCNDTLVREIKLEIFINDEKVGALMATPVDEQALAIGYLMSENIIAKVSDIESIETKDDGMSVHIKAKIDKENLAKLNAEGVVISGCGRAHTANIDPEAIEASKISSDAKFSKDEILKQMSTFYTQCELYEKTGCVHTAKLFVDEKTFFIGEDIAQHNTIDKALGKACLAGVDLSQCFLMVSGRLSSEMVAKAVMHKIPVLVSRTAPTCLGVMIARKFDLTLCGFARENKINIYSGEFRIHG | soluble
NILKIRCAPVTWPIGMGKNFKGVYHILNDEIYLFEAGGERLPHEFDIIKGIDNPELEQRFPLEIQQLRDEIELVQAASNEFNLDEFLAGELTPVFFGSAINNFGIQEILNSLIDWAPAPKPRDATVRMVEPDEPKFSGFIFKIQANMDPKHRDRIAFLRVCSGKFERGMKMKHLRINREIAASSVVTFMSHDRELVEEAYAGDIIGIPNHGNIQIGDSFSEGEQLAFTGIPFFAPELFRSVRIKNPLKIKQLQKGLQQLGEEGAVQVFKPMSGADLILGAVGVLQFEVVTSRLANEYGVEAVFDSASIWSARWVSCDDKKKLAEFEKANAGNLAIDAGGNLAYLAPNRVNLGLTQERWPDIVFHETREHSVKL | not soluble
MAGKVKWVTDIEKSVLINNFEKRGWIQVTDSEDWNFYWMSIQTIRTVFSVDTGYRLTDDQMVNHFPNHYELTRKDLMIKNIKRYRRELEKENSALAEKDDSGKYIYLDFVPVTFMLPADYNLFVEEFRKSPSSTWIMKPCGKAQGKGIFLINKLSQIKKWSRDSRTSTFVAANSGKEAYVISLYIDNPLLIGGKKFDLRLYVLVTTYRPLKCYMWVQESSE | not soluble
MLTRLNRSFVQAARSMYIQVQETPNPLSLKFLPGQQLLPDASKTYDFSSAATAKQSPLAIKLLRVDGVKRVFFGEDFVTVTKSDETVDWALLRPEIFSTIADHIQTGKPVINEAATVSDQVEEDDEVVMMIKEILETRIRPMVQEDGGDITYVGFDDGVVKLKMQGSCTGCPSSGVTLKNGIENMLTFYVPEVKEVIEVKDESDDLVEQELKKFEQSKGIKD | not soluble
MDRFMAGDLEVRCEVIYRRVKNPRIELRFDSLRLILPADFTGDPMEVLSSRSDWIQRKIHEFHEMLERASDMELEYRRDKELRSLVSGFLDHYSDVLGVEYGRVRFRRMRSRWGSCSSRGNLSFNTLLSHLPDRMVEYVVLHELAHLREMNHSPRFWGILESEMPDCTERRRMLRYYWARLYMEGLVDLEHHHHHH | soluble
DPTAQSLQDISDEQVLVLFEQMLVDMNLNEEKQQPLREKDIVIKREMVSQYLHTSKAGMNQKESSRSAMMYIQELRSGLRDMHLLSCLESLRVSLTSHPVSWVQTFGAEGLASLLDILKRLHDEKEETSGNYDSRNQHEIIRCLKAFMNNKFGIKTMLETEEGILLLVRAMDPAVPNMMIDAAKLLSALCILPQPEDMNERVLEAMTERAEMDEVERFQPLLDGLKSGTSIALKVGCLQLINALITPAEELDFRVHIRSELMRLGLHQVLQELREIENEDMKVQLCVFDEQGDEDFFDLKGRLDDIRMEMDDFGEVFQIILNTVKDSKAEPHFLSILQHLLLVRNDYEARPQYYKLIEECVSQIVLHKNGTDPDFKCRHLQID | soluble
MICYEYINDYIRKTIKKNEGFLAELEEFAKENHVPIVHPEVASLLRVIGLTLRPSRVLEVGTAIGYSAILFSTFLEPGGRIDTIDRYELMLEKARANVKKAGLQDVINIIEGDALEVLKCLEHKYDMIFLDAAKGQYPEFLPECLRLLRSGGLLISDNILYKGMVAKDELVVRRKKTIVKRLRNYLETICNTDELETSILPVGDGLAISFKK | not soluble
MAELQKVDDWLSALLANLEPAARSRMMRQLAQELRRTQQQNIRMQRNPDGSSYEPRRVTARSKKGRIKRQMFAKLRTTKYLKTAASADSASVQFEGKVQSIARVHHYGLRDRVSRKGPEVRYAERRLLGVNDDVEAMTRDMILQWLAG | not soluble
AMNTDLKLPAGKTMTIEDVKQLLERYQMALKKTGEQLGWAYEQAAFPYTVRIHESVLYLQGDGRLYKGMAISVRTAGEETFIDIALPPGATHGDKGKANEFSKWLAKTLGGELHLFSGRTMVFGSA | soluble
GMSETITFPPLMTGEAAGPGQDPFDLACQKAELGVDAGLVVYELGTDVLRAALVLAPEVPLAKAMAMLPVCGVGFQNALGALAPPEVAVHLDWNGALRINGARCGRLRIAASTDDPDTQPDWLVVGLDLPLWPEGDGGETPDETALYAEGCADVAAPRLLESWARHCLHWINRWDEGELETIHGEWRGLAHGMGEARTEAGRSGTFLGVDEDFGMLLRDETTTHLIPLTTVLVQD | soluble
MWDERFSQSEYVYGTEPNDFLVSVANQIPQGKILCLAEGEGRNACFLASLGYEVTAVDQSSVGLAKAKQLAQEKGVKITTVQSNLADFDIVADAWEGIVSIFCHLPSSLRQQLYPKVYQGLKPGGVFILEGFAPEQLQYNTGGPKDLDLLPKLETLQSELPSLNWLIANNLERNLDEGAYHQGKAALIQLLGQKLEHHHHHH | soluble
MPNIKIFSGSSHQDLSQKIADRLGLELGKVVTKKFSNQETCVEIGESVRGEDVYIVQSGCGEINDNLMELLIMINACKIASASRVTAVIPCFPYARQDKKDKSRAPISAKLVANMLSVAGADHIITMDLHASQIQGFFDIPVDNLYAEPAVLKWIRENISEWRNCTIVSPDAGGAKRVTSIADRLNVDFALIHKERKKANEVDRMVLVGDVKDRVAILVDDMADTCGTICHAADKLLSAGATRVYAILTHGIFSGPAISRINNACFEAVVVTNTIPQEDKMKHCSKIQVIDISMILAEAIRRTHNGESVSYLFSHVPLLEHHHHHH | soluble
MYSLIRHGRSLVELQKWRHLRVLVQKASPLSNSFSSASAARLSPRVGRKGKSFTVSYLVDSLGLPKKLAESVSRKVSFEDKDNPDSVLNLLRSHGFTDSQISTIVTDYPQLLVADAEKSLAPKLQFLQSRGASSSELTEIVSTVPKILGKRGHKTISVFYDFIKETLLDKSSKSEKSCQPFPQGNLENKIRNLSVLRELGMPHKLLFPLLISCDVPVFGKEKFEESLKKVVEMGFDPSTSKFVEALCVVQRLSDKNIEDKVNAYKRLGFDVEYVWTVFKRWPNFLTHSEKKILNTIETFLGLGFSRDEFSVLIKRFPQGIGLSAEMVKKKTEFLVKKMNWPLKALVSNPAVLGYSLEKRTVPRGNVVQALISKGLIGSELPSISRVFVCTDQVFLNRYVKRHEDKQLETELMAIYRAS | soluble
MRVVVSIGGSVLAPGLDADQVDAHADAINELTDAGCEVGAVVGGGGVARDYIGTARELGANEIELDDIGVDVTRLNARLLIAALGGDAAPSPAEDYEDAGEAMRRGDIAVMGGVVAGQTTDAVSAALAEYTDADLLLYATSVPGVFSADPNEDADAEHFTRMTAGELVDIIADIEMNAGSSAPVDLLAAKLIERSGVRTIVLDGTDPRRIVDAVRFGEHDGTDVIPDGTDNQMTYWADNQELEHHHHHH | not soluble
MVMNRSSPHGGGVAAGDGGGRPLRPGHFPLRPLRGHLPPGGRIFALALAVALPVQAETLASRAPETVAITLYRDGDGPFQAMSPWVRQQARDKGLVLVTETRTVDLPAGRHTLRFDGVAEGLIPQSAAVEGLPGKAVERNYDYALLSPGTLVERSLGQPIKVVRTNRKTGRQQTVDATLIQGPYGLMVRTAEGVEALGCSGGAERLVLGAVPEGLTDKPSLSTIVEVPAPTRAKLTVSYLALGVNWQADYVARIHPDGQRLDLTGWLTLVNSGGSQFADAKTQAVAGKLSRKPVRVDKGEARSIHRACWPMDTTHYGQEPPPPPAPPPPLPIPMMSAAPMARAGAEEIAVTGARAKLAEQSNLGDYKLYTLPEPVTLNARQTKQVAFLDQKDVAFQRLYAVEMDSYDDYDNADWPLIIPDVVLRLENKTANGLGKPLPSGALSAIETAGGRPTFAGEQAVRDVAVGEPLDLVIGRAMDVHARPRLVEERTLSKGRVRRTYELDLANAKTVPITVEIRHDPTAPYFKLVSEPQKHDIRQGQVAWRVTLPAGERRSFRYAVAFGR | not soluble
